The RNAGym collection of RNA variant scans (doi:10.1073/pnas.2313332121)
This sample holds only a part of the variants without activity.

B1: TPR 5TU (parent)
chain: GGAUCUUCUCGAUCUAACAAAAAAGACAAAUCUGCCACAAAGCUUGAGAGCAUCUUCGGAUGCAGAGGCGGCAGCCUUCGGUGGCGCGAUAGCGCCAACGUUCUCAACUAUGACACGCAAAACGCGUGCUCCGUUGAAUGGAGUUUAUCAUG

Variants of: B1
Assay: polymerase ribozyme fitness, log enrichment relative to wild type (log ratio); higher = more active; in vitro selection for triplet polymerase activity
Outline: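 Frozen incubation at −7 °C formed the core of a single, triplicate in vitro selection round applied to PCR-built, transcribed mutant libraries of each subunit of a heterodimeric triplet polymerase ribozyme. Extended constructs were gel-excised, captured with streptavidin beads and amplified by RT-PCR, and input and output libraries were Illumina-sequenced with a filter of ≥10 input reads and ≥1 read per output. Fitness is the logarithm of genotype enrichment relative to wild-type enrichment, with inverse-variance-weighted replicate averaging, and the logarithm is base 2.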

GGAUCUUAUCGAUCUAACAAAAAAGACCAGUCUGCCACAAAGCUUGAGAGCAUCUUCGGAUGCAGAGGCGGCAGCCUUCGGUGGCGCGAUAGCGCAAACGUUCUCAACUAUGACACGCAAAACGCGGGCUCCGUUGAAUGGAGUUUAUCAUG and GGAUCUUAUCGAUCUAACAAAAAAGACAAAUCUGCCACAAAGCUUGAGAGCAUCUUGGGAUGCAGAGGCGGCAGCCUUCGGAGGCGCGAUAGCGCCAGCGUUCUCAACUAUGACACGCAAAACGCGUGCUCCGUUGAAUGGAGUUUAUCAUG cannot be ordered by “polymerase ribozyme fitness (log ratio)” value: ≤ -4.2 for the first, ≤ -4.2 for the second.

GGAUCUUAUCGAUCUAACAAAAAAGACAAAUCUGCCCCAAAGCUUGAGAGCAUCUUCGCAUGCAGAGGCGGCAGACUUCGGUGGCGCGAUAACGCCAACGUUCUCAACUAUGACACGCAAAACGCGUGCUCCGUUGAAUGGAGUUUAUCAUG and GGAUCUUAUCGAUCUAACAAAAAUGACAAAUCUGCCACAAAGCUUGAGAGCAUCUUCGGAUGCAGAGGCGACAGCCUUCGGUGACGCGAUAGCGCCAACGUUCUCAACUAUGACACGCAAAACGCGUGCUCCGUUGAAUGGACUUUAUCAUG cannot be ordered by “polymerase ribozyme fitness (log ratio)” value: ≤ -4.2 for the first, ≤ -4.2 for the second.

GGAUCUUAUCGAUCUAACAAAAAAGACAAAUCUGCCACAAAGCUUGAGGGCAUCUUCGGUUGCAGAGGCGGCAGUCUCCGGUGGGGCGAUAGCGCCAACGUUCUCAACUAUGACAGGCAAAACGCGUGCUCCGUUGAAUAGAGUUUAUCAUG and GGAUCUUAUCGGGCUAACAAAAAAGACAAAUCUGCCACAAAGCUUGAGAGAAUCUUAGGAUGCAGAGGCGGCAGCCUUCGGUGGCGCGAUAUCGCCAACGUUCUCAACUAUGACACGCAAAACCCGUGCUCCGUUGAAUGGAGCUUAUCAUG cannot be ordered by “polymerase ribozyme fitness (log ratio)” value: ≤ -4.2 for the first, ≤ -4.2 for the second.

GGAUCUUAUCGAUGUAACAAGAAAAACAAAUCUGCCACAAAGCUCGAGAGCAUCUUCGGAUGCAGAGGCGGCAGACUUCGUUGGGGGGAUAGCGCCAACGUUCUCAACUAUGACACGCAAAACGCGUGCUCCGUUGAAUGGAGUUUAUCAUG and GGAUCUUAUCGAUCUAACACAGAAGACAAAUCUGCCACAAACCUUGAGAGCAACUUCGGAUGCAGAGGCGGCAGCCUUCGGUGGCGCGAUAGCGUCAACGUUCUCAACUAUGACACGCAAAACGCGUGCUCCGUUGAAUGGAGUUUAUCAUG cannot be ordered by “polymerase ribozyme fitness (log ratio)” value: ≤ -4.2 for the first, ≤ -4.2 for the second.

GGAUCUUAUCGAUCUAACAAAACAGACAAAUCUGCCAUAAAGCUUGAGAGCAUCUUCGGAUGCAGAGGCGGCAGCCUUCGGUGGCGCGAUAGCGCCAACGUUCUCAACUAUGACACGCAAAACGCGUGCUCCGUUGAAUGGGGUUUAUCAUG and GGAUCUUAUCGAUCUAACAAAAAAGACAAAUCUGCCACAAAGCUUGAGAGCAUCUUCGGAUGCAGAGGCGGCAGCCUUUGGUGGCGCGAUAGCGCCAACGUUCUCAACUAUGACACGCACAACGGGUGCUCCGUUGAAUGGUGUUCAUCAUG cannot be ordered by “polymerase ribozyme fitness (log ratio)” value: ≤ -4.2 for the first, ≤ -4.2 for the second.

Compared with GGAUCUUAUCGCUCUAACAAAAAAGACAAAUCUGCCACAAAGCUUGAGAGCAUCUUCGGAUGCAGAGGCGGCAGCCUUCGGUGGCGCGAUAGCGCCAACGUUCUCAACUAUGACACGCAAAACGCGUGCUCCGUUGAAUGGAGUUUAUCAUG, GGAUCUUAUCGAUCUAACAAAAAAGACAAAUCUGCCACAAAGCUUGAGAGCAUCUUAGGAUGCAGAGGCGGCAACCUUCGGUGGCGCGAUAGCGCCAACGUUCUCAACUAUGACACGUAAAACGCGUGCUCCGUUGAAUGGAGUUUAUCAUG is lower in “polymerase ribozyme fitness (log ratio)” value: -3.07 for the first, ≤ -4.2 for the second.

GGAUCUUAUCGAUCUAACAAAAAAGACAAAUCUGCCACAAAGCUUGAGAGCAUCUUCGGAUGCAGAGGCGGCAGCCUUCGGUGGUGCGAUAGCGCCAACGUUCUCAACUAUGACAUGCAAAACGCGUGCUCCGUUGAAUGAAGUUUAUCAUG and GGAUCUUAUCGAUCUAACAAAAAAGACAAAUCUGCCACAAAGCUUGAGAGCAUCUUCGGAUGCAGAGGCGGCAGCCUUCGGUGGCGAGAUAGCGCCAAUGUUCUCAACUAUGACACGCAAAACGCGUGCUCCGUUGAAUGGAGUUUAUCAUG cannot be ordered by “polymerase ribozyme fitness (log ratio)” value: ≤ -4.2 for the first, ≤ -4.2 for the second.

GGAUCUUAUCGAUCUAGCAAAAAAGACAAAUCUGCCACAAAGCUUGAGAGCAUCUUCGGAUGCAGAGGCGGCAGCCUUCGGUGGCGCGAUAGCGCCAGCGUUCUCAACUAUGACACGCAAAACGCGUGCUCCGUUGAAUGGAGAUUAUCAUG and GGAUCUUAUCGAUCUAACUAAAAAGACAAAUCUGCCACAAAGCUUGACAGCAUCUACGGAUGCAGAGGCGGCAGCCUUCGGUGGCGCGAUAGUGCCAACGUUCUCAACUAUGACACGCAAAACGCGUGCUCCGUUGAAUAGGGUUUAUCCUG cannot be ordered by “polymerase ribozyme fitness (log ratio)” value: ≤ -4.2 for the first, ≤ -4.2 for the second.

GGAUCUUAUCGAUCUAACAAAAAAGACAAAUCUGCCACAUAGCUUGAGAGCAUCUUCGGAUGCAGAGGCGUCAGCCUUCGGUGGGGCGAUAGCGCCAACGUUCUCAACUAUGACACGCAAAACGCGUGCUCCGUUGAAUGGAGUUUAUCAUG and GGAUCUUAUCGAUCUAACAAAAAAGACAAAUCUGCCACAAUGCUUGAGAGCAUCUUCGGAUGCAGAGGCGGCAGCUUUCGGUGGCGCGAUAGCGCCAGCGUUCUCAACUAUGACAGGCAAAACGCGUGCUCCGUUGAAUGGACUUUAUCAUG cannot be ordered by “polymerase ribozyme fitness (log ratio)” value: ≤ -4.2 for the first, ≤ -4.2 for the second.

With GGAUCUUAUCGAUCUAACAAAAAAGACAAAUCUGCCACAAAGCUUGAGAGCAUCUUCGGAUGCAGAGGCGGCAGCGUUCGGUGGCUCGAUAGCGCCAACGUUCUCAACGAUGACACGCAAAACGCGUGCUCCGUUGAAUGUAGUUUAUCAUG the “polymerase ribozyme fitness (log ratio)” value was ≤ -4.2.
